Measured values published in the RNAGym collection of RNA variant scans (doi:10.7554/elife.80360).

B1: Hairpin Ribozyme (parent)
chain: GUCCUCUUUCACGUGCGCGUGAAAGAGAGAAGUGAACCAGAGAAACACACGUUGUGGUAUAUUACCUGGUA

Variants of: B1
Assay: self-cleavage, relative activity (ratio to wild type); higher = more cleavage; co-transcriptional

Variant | self-cleavage
GUCCUCUUUCACGUGCGCGUGAAAGAGAGAAGUGAACCAGAGUAACACAUGUUGUGGUAUAUUACCUGGUA [A43U C50U] | 0.116
GUCCUCUUUCACGUGCGCGUGAAAGAGAGAAGUGAACCAGAGUAACACAGGUUGUGGUAUAUUACCUGGUA [A43U C50G] | 0.107
GUCCUCUUUCACGUGCGCGUGAAAGAGAGAAGUGAACCAGAGAGACACACGUUGUGGUAUGUUACCUGGUA [A44G A61G] | 0.152
GUCCUCUUUCACGUGCGCGUGAAAGAGAGAAGUGAACCAGAGAGACACACGUUGUGGUAUCUUACCUGGUA [A44G A61C] | 0.0999
GUCCUCUUUCACGUGCGCGUGAAAGAGAGAAGUGAACCAGAGUAACACACGUUGAGGUAUAUUACCUGGUA [A43U U55A] | 0.129
GUCCUCUUUCACGUGCGCGUGAAAGAGAGAAGUGAACCAGAGACACACACGUUGUAGUAUAUUACCUGGUA [A44C G56A] | 0.152
GUCCUCUUUCACGUGCGCGUGAAAGAGAGAAGUGAACCAGAGAGACACUCGUUGUGGUAUAUUACCUGGUA [A44G A49U] | 0.0347
GUCCUCUUUCACGUGCGCGUGAAAGAGAGAAGUGAACCAGAGUAACACACGGUGUGGUAUAUUACCUGGUA [A43U U52G] | 0.139
GUCCUCUUUCACGUGCGCGUGAAAGAGAGAAGUGAACCAGAGUAACACACGCUGUGGUAUAUUACCUGGUA [A43U U52C] | 0.143
GUCCUCUUUCACGUGCGCGUGAAAGAGAGAAGUGAACCAGAGACACACACGUUGUGGUAUGUUACCUGGUA [A44C A61G] | 0.115
GUCCUCUUUCACGUGCGCGUGAAAGAGAGAAGUGAACCAGAGACACACACGUUGUGGUAUAUUACCUGAUA [A44C G69A] | 0.121
GUCCUCUUUCACGUGCGCGUGAAAGAGAGAAGUGAACCAGAGUAACACACGUUGUGGUUUAUUACCUGGUA [A43U A59U] | 0.204
GUCCUCUUUCACGUGCGCGUGAAAGAGAGAAGUGAACCAGAGUAACACACGUUGUGGUGUAUUACCUGGUA [A43U A59G] | 0.166
GUCCUCUUUCACGUGCGCGUGAAAGAGAGAAGUGAACCAGAGACACACACGUUGUGGUACAUUACCUGGUA [A44C U60C] | 0.0498
GUCCUCUUUCACGUGCGCGUGAAAGAGAGAAGUGAACCAGAGACACACAAGUUGUGGUAUAUUACCUGGUA [A44C C50A] | 0.0943
GUCCUCUUUCACGUGCGCGUGAAAGAGAGAAGUGAACCAGAGGAACACACGUUGUGGUAAAUUACCUGGUA [A43G U60A] | 0.202
GUCCUCUUUCACGUGCGCGUGAAAGAGAGAAGUGAACCAGAGGAACACACGUUGUGGUAGAUUACCUGGUA [A43G U60G] | 0.0362
GUCCUCUUUCACGUGCGCGUGAAAGAGAGAAGUGAACCAGAGACACUCACGUUGUGGUAUAUUACCUGGUA [A44C A47U] | 0.135
GUCCUCUUUCACGUGCGCGUGAAAGAGAGAAGUGAACCAGAGACACACACGUUGUGGUAUAUUACCUCGUA [A44C G68C] | 0.0374
GUCCUCUUUCACGUGCGCGUGAAAGAGAGAAGUGAACCAGAGACACACACGUUGGGGUAUAUUACCUGGUA [A44C U55G] | 0.102
GUCCUCUUUCACGUGCGCGUGAAAGAGAGAAGUGAACCAGAGACACACACGUUGCGGUAUAUUACCUGGUA [A44C U55C] | 0.172
GUCCUCUUUCACGUGCGCGUGAAAGAGAGAAGUGAACCAGAGGAACACACGUUGUGGGAUAUUACCUGGUA [A43G U58G] | 0.212
GUCCUCUUUCACGUGCGCGUGAAAGAGAGAAGUGAACCAGAGGAACACACGUUGUGGCAUAUUACCUGGUA [A43G U58C] | 0.12
GUCCUCUUUCACGUGCGCGUGAAAGAGAGAAGUGAACCAGAGACACACUCGUUGUGGUAUAUUACCUGGUA [A44C A49U] | 0.0612
GUCCUCUUUCACGUGCGCGUGAAAGAGAGAAGUGAACCAGAGUAUCACACGUUGUGGUAUAUUACCUGGUA [A43U A45U] | 0.164
GUCCUCUUUCACGUGCGCGUGAAAGAGAGAAGUGAACCAGAGGAACACACGUUGUGGUAUAUUACCUCGUA [A43G G68C] | 0.0248

Variant | self-cleavage
GUCCUCUUUCACGUGCGCGUGAAAGAGAGAAGUGAACCAGAGACACACACGGUGUGGUAUAUUACCUGGUA [A44C U52G] | 0.203
GUCCUCUUUCACGUGCGCGUGAAAGAGAGAAGUGAACCAGAGACACACACGUUGUGGUAUAUUACCUGGUU [A44C A71U] | 0.152
GUCCUCUUUCACGUGCGCGUGAAAGAGAGAAGUGAACCAGAGUAACACACGUUGUGGUAUAUUCCCUGGUA [A43U A64C] | 0.161
GUCCUCUUUCACGUGCGCGUGAAAGAGAGAAGUGAACCAGAGUAACACACGUUGUGGUAUAUUUCCUGGUA [A43U A64U] | 0.266
GUCCUCUUUCACGUGCGCGUGAAAGAGAGAAGUGAACCAGAGUAACACACGUUGUGGUAUAUUACCUGGUA [A43U] | 0.151
GUCCUCUUUCACGUGCGCGUGAAAGAGAGAAGUGAACCAGAGGAACACACGUUGUGGUAUAUUACCUGGCA [A43G U70C] | 0.19
GUCCUCUUUCACGUGCGCGUGAAAGAGAGAAGUGAACCAGAGGAACACACGUUGUGGUAUAUUACCUGGGA [A43G U70G] | 0.288
GUCCUCUUUCACGUGCGCGUGAAAGAGAGAAGUGAACCAGAGGAACACACGUUGUGGUAUAUUACCUGGAA [A43G U70A] | 0.225
GUCCUCUUUCACGUGCGCGUGAAAGAGAGAAGUGAACCAGAGUAACACACGUUGUGGUAUAUUACCUGGUG [A43U A71G] | 0.247
GUCCUCUUUCACGUGCGCGUGAAAGAGAGAAGUGAACCAGAGUAACACACGUUGUGGUAUAUUACCUGGUU [A43U A71U] | 0.179
GUCCUCUUUCACGUGCGCGUGAAAGAGAGAAGUGAACCAGAGACACACACUUUGUGGUAUAUUACCUGGUA [A44C G51U] | 0.114
GUCCUCUUUCACGUGCGCGUGAAAGAGAGAAGUGAACCAGAGACACACACAUUGUGGUAUAUUACCUGGUA [A44C G51A] | 0.0817
GUCCUCUUUCACGUGCGCGUGAAAGAGAGAAGUGAACCAGAGGAACACACGUUGUGGUAUAUUACCUGCUA [A43G G69C] | 0.268
GUCCUCUUUCACGUGCGCGUGAAAGAGAGAAGUGAACCAGAGGAACACACGUCGUGGUAUAUUACCUGGUA [A43G U53C] | 0.107
GUCCUCUUUCACGUGCGCGUGAAAGAGAGAAGUGAACCAGAGGAACACACGUAGUGGUAUAUUACCUGGUA [A43G U53A] | 0.152
GUCCUCUUUCACGUGCGCGUGAAAGAGAGAAGUGAACCAGAGUAACACACGUGGUGGUAUAUUACCUGGUA [A43U U53G] | 0.046
GUCCUCUUUCACGUGCGCGUGAAAGAGAGAAGUGAACCAGAGUAACACACGUAGUGGUAUAUUACCUGGUA [A43U U53A] | 0.206
GUCCUCUUUCACGUGCGCGUGAAAGAGAGAAGUGAACCAGAGUAACACACGUCGUGGUAUAUUACCUGGUA [A43U U53C] | 0.111
GUCCUCUUUCACGUGCGCGUGAAAGAGAGAAGUGAACCAGAGACACACACGUUGUGGUAUAGUACCUGGUA [A44C U62G] | 0.304
GUCCUCUUUCACGUGCGCGUGAAAGAGAGAAGUGAACCAGAGACACACACGUUGUGGUAUAUUAACUGGUA [A44C C65A] | 0.213
GUCCUCUUUCACGUGCGCGUGAAAGAGAGAAGUGAACCAGAGGAACACACGCUGUGGUAUAUUACCUGGUA [A43G U52C] | 0.064
GUCCUCUUUCACGUGCGCGUGAAAGAGAGAAGUGAACCAGAGUAACACUCGUUGUGGUAUAUUACCUGGUA [A43U A49U] | 0.27
GUCCUCUUUCACGUGCGCGUGAAAGAGAGAAGUGAACCAGAGUAACACACGUUGUGGUAUAUUACCUGGCA [A43U U70C] | 0.159
GUCCUCUUUCACGUGCGCGUGAAAGAGAGAAGUGAACCAGAGUAACACACGUUGUGGUAUAUUACCUGUUA [A43U G69U] | 0.174
GUCCUCUUUCACGUGCGCGUGAAAGAGAGAAGUGAACCAGAGACACAUACGUUGUGGUAUAUUACCUGGUA [A44C C48U] | 0.0439
GUCCUCUUUCACGUGCGCGUGAAAGAGAGAAGUGAACCAGAGACACACACGUUGUGGUAUAUUACCAGGUA [A44C U67A] | 0.113

Variant | self-cleavage
GUCCUCUUUCACGUGCGCGUGAAAGAGAGAAGUGAACCAGAGACACACACGUCGUGGUAUAUUACCUGGUA [A44C U53C] | 0.108
GUCCUCUUUCACGUGCGCGUGAAAGAGAGAAGUGAACCAGAGACACACACGUAGUGGUAUAUUACCUGGUA [A44C U53A] | 0.186
GUCCUCUUUCACGUGCGCGUGAAAGAGAGAAGUGAACCAGAGUAACACACGUUGUGGUAUAUAACCUGGUA [A43U U63A] | 0.107
GUCCUCUUUCACGUGCGCGUGAAAGAGAGAAGUGAACCAGAGUAACACACGUUGUGGUAUAUCACCUGGUA [A43U U63C] | 0.219
GUCCUCUUUCACGUGCGCGUGAAAGAGAGAAGUGAACCAGAGAGCCACACGUUGUGGUAUAUUACCUGGUA [A44G A45C] | 0.252
GUCCUCUUUCACGUGCGCGUGAAAGAGAGAAGUGAACCAGAGUAACACACGUUGUGGUAAAUUACCUGGUA [A43U U60A] | 0.255
GUCCUCUUUCACGUGCGCGUGAAAGAGAGAAGUGAACCAGAGUAACACACGUUGUGGGAUAUUACCUGGUA [A43U U58G] | 0.0898
GUCCUCUUUCACGUGCGCGUGAAAGAGAGAAGUGAACCAGAGUAACACACGUUGUGGAAUAUUACCUGGUA [A43U U58A] | 0.0678
GUCCUCUUUCACGUGCGCGUGAAAGAGAGAAGUGAACCAGAGACGCACACGUUGUGGUAUAUUACCUGGUA [A44C A45G] | 0.208
GUCCUCUUUCACGUGCGCGUGAAAGAGAGAAGUGAACCAGAGUAACUCACGUUGUGGUAUAUUACCUGGUA [A43U A47U] | 0.145
GUCCUCUUUCACGUGCGCGUGAAAGAGAGAAGUGAACCAGAGUAACGCACGUUGUGGUAUAUUACCUGGUA [A43U A47G] | 0.121
GUCCUCUUUCACGUGCGCGUGAAAGAGAGAAGUGAACCAGAGUAACACACGUUGUGGUAUAUUACCUUGUA [A43U G68U] | 0.223
GUCCUCUUUCACGUGCGCGUGAAAGAGAGAAGUGAACCAGAGUAACACACGUUGUGGUAUAUUACCUAGUA [A43U G68A] | 0.0877
GUCCUCUUUCACGUGCGCGUGAAAGAGAGAAGUGAACCAGAGUAACACACGUUGUGGUAUAUUACCCGGUA [A43U U67C] | 0.109
GUCCUCUUUCACGUGCGCGUGAAAGAGAGAAGUGAACCAGAGACAUACACGUUGUGGUAUAUUACCUGGUA [A44C C46U] | 0.238
GUCCUCUUUCACGUGCGCGUGAAAGAGAGAAGUGAACCAGAGACAGACACGUUGUGGUAUAUUACCUGGUA [A44C C46G] | 0.0995
GUCCUCUUUCACGUGCGCGUGAAAGAGAGAAGUGAACCAGAGACAAACACGUUGUGGUAUAUUACCUGGUA [A44C C46A] | 0.141
GUCCUCUUUCACGUGCGCGUGAAAGAGAGAAGUGAACCAGAGUAAAACACGUUGUGGUAUAUUACCUGGUA [A43U C46A] | 0.0823
GUCCUCUUUCACGUGCGCGUGAAAGAGAGAAGUGAACCAGAGUAAGACACGUUGUGGUAUAUUACCUGGUA [A43U C46G] | 0.0741
GUCCUCUUUCACGUGCGCGUGAAAGAGAGAAGUGAACCAGAGGAACACACGUUGUGGUAUAUAACCUGGUA [A43G U63A] | 0.134
GUCCUCUUUCACGUGCGCGUGAAAGAGAGAAGUGAACCAGAGGAACACACGUUGUGGUAUAUCACCUGGUA [A43G U63C] | 0.156
GUCCUCUUUCACGUGCGCGUGAAAGAGAGAAGUGAACCAGAGGAACACACGUUGUGGUAUAUGACCUGGUA [A43G U63G] | 0.11
GUCCUCUUUCACGUGCGCGUGAAAGAGAGAAGUGAACCAGAGACACACACGUUGUGGUAUAUCACCUGGUA [A44C U63C] | 0.172
GUCCUCUUUCACGUGCGCGUGAAAGAGAGAAGUGAACCAGAGACACACACGUUGUGGUAUAUAACCUGGUA [A44C U63A] | 0.128
